# Results reported in PMC4036194, “Crystal Structure and Molecular Imaging of the Nav Channel β3 Subunit Indicates a Trimeric Assembly*” (The Journal of Biological Chemistry, 2014).
# B1: Full-length human β3 subunit with a carboxyl-terminal Myc epitope tag (natural protein, UniProt Q9NY72 23-215, looked up)
# chain: FPVCVEVPSETEAVQGNPMKLRCISCMKREEVEATTVVEWFYRPEGGKDFLIYEYRNGHQEVESPFQGRLQWNGSKDLQDVSITVLNVTLNDSGLYTCNVSREFEFEAHRPFVKTTRLIPLRVTEEAGEDFTSVVSEIMMYILLVFLTLWLLIEMIYCYRKVSKAEEAAQENASDYLAIPSENKENSAVPVEE
# notes: Nav channel β3 subunit (SCN3B), human, full length; runs at ~40 kDa (glycosylated) and ~30 kDa (likely unglycosylated); numbers count on: the mature protein; also called Myc-tagged β3 subunit; wild-type β3; source: tsA 201 cells, transfected (pFastBacMam); immunoisolated from detergent extract (anti-Myc agarose, Myc peptide elution); in detergent extract of co-transfected cells for co-isolation …
# B2: Full-length β3 subunit tagged at the carboxyl terminus with mEos2 (natural protein, UniProt Q9NY72 23-215, looked up)
# chain: B1 chain
# notes: Nav channel β3 subunit (SCN3B), full length; also called β3-mEos2; β3-mEOS2; source: HEK293 cells, transiently transfected, on the plasma membrane of fixed cells; not shown: mEos2, C-terminal, kept
# B3: Nav channel β3 subunit Ig domain with carboxyl-terminal hexa-His tag (domain or fragment, human)
# chain: VCVEVPSETEAVQGNPMKLRCISCMKREEVEATTVVEWFYRPEGGKDFLIYEYRNGHQEVESPFQGRLQWNGSKDLQDVSITVLNVTLNDSGLYTCNVSREFEFEAHRPFVKTTRLIPLRV
# modifications: disulfide bonds Cys-2–24 and Cys-21–96
# notes: Nav channel β3 subunit (SCN3B), human, extracellular Ig domain; the cDNA also encodes the amino-terminal ER targeting signal, which was efficiently removed on secretion; 127 amino acids in total, theoretical mass 14.8 kDa; numbers count on: the mature protein; Deglycosylated with peptide:N-glycosidase F for crystallisation; chemically cross-linked for AUC; Surmise: the 127 residues are the mature …
# Key:
# [1] = biological target: T1, Human Nav 1.5 α subunit with a carboxyl-terminal hemagglutinin (HA) epitope tag (human, UniProt Q14524 1-2016); assay: atomic force microscopy (AFM) imaging; α subunit isolated through its HA tag from tsA 201 cells co-transfected with wild-type Myc-tagged β3; co-isolated sample on mica, imaged in air in tapping mode; details: both partners purified
# T1 construct: Nav 1.5 sodium channel α subunit, human; ~250 kDa; Construct provided by Dr. C; source: tsA 201 cells, transfected (pcDNA3N); immunoisolated from detergent extract (anti-HA agarose, HA peptide elution); not shown: HA, C-terminal, kept
# T1 sequence (Q14524 whole entry): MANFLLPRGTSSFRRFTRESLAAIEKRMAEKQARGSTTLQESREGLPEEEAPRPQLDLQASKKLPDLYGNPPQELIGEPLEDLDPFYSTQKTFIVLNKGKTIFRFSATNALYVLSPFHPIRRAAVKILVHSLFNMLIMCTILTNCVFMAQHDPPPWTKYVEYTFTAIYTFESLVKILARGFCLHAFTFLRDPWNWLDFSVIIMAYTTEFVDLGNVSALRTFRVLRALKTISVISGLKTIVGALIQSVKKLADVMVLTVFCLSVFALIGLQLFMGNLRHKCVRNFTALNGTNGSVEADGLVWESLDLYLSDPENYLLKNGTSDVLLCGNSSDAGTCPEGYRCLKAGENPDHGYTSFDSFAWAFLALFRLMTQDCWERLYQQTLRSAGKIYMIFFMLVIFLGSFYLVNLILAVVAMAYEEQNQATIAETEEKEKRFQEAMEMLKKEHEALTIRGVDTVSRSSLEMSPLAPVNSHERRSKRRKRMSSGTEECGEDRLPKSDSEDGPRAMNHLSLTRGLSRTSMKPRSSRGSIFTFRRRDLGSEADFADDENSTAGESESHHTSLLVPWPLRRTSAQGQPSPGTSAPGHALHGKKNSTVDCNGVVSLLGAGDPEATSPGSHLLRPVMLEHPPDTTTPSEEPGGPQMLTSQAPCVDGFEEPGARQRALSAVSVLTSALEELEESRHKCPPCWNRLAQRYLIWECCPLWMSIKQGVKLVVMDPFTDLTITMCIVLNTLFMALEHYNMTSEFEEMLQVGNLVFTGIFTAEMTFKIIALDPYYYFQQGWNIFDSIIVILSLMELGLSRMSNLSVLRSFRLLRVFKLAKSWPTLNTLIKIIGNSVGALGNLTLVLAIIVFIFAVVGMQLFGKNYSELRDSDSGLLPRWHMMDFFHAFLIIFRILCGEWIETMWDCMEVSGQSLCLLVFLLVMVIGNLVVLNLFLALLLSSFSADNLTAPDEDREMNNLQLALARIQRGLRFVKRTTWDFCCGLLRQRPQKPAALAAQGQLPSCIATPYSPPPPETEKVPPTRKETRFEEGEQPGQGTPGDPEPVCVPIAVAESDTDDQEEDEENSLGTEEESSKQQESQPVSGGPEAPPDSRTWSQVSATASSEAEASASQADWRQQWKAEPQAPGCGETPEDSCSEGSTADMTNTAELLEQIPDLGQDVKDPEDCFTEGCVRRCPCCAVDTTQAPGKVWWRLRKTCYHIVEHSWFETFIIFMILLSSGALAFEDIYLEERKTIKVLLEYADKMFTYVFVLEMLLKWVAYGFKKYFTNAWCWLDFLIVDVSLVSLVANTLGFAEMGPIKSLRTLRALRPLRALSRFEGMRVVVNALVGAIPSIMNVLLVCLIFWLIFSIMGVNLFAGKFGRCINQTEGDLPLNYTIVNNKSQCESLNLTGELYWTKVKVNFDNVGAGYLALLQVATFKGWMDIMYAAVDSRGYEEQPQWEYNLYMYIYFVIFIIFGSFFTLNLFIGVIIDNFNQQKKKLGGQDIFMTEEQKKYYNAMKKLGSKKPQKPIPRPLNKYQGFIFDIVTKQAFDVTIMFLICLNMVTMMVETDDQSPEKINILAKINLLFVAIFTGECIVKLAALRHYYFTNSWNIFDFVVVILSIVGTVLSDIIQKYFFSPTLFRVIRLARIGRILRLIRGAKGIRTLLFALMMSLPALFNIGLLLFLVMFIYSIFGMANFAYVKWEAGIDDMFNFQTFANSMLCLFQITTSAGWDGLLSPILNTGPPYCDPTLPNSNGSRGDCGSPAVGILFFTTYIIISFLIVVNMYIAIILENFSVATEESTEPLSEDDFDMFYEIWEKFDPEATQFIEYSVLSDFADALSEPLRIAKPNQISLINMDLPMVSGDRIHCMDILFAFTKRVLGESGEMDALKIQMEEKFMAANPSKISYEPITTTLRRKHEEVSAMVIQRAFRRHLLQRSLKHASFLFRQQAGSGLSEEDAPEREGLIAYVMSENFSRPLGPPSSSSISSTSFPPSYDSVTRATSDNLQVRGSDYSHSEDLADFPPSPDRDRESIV
# [2] = biological target: the molecule itself; assay: fluorescence photoactivated localization microscopy (FPALM) with pair correlation analysis; mEos2 fusions on the plasma membrane of fixed, transfected HEK293 cells; TIRF-PALM; 30 regions of 1 μm^2 on five cells; proteins per cluster
# [3] = biological target: the molecule itself; assay: crystal structure; deglycosylated β3 Ig domain; sitting drop, 1 M sodium citrate tribasic, 0.1 M CHES/sodium hydroxide pH 9.5, 19 °C; space group P3(1)21, three molecules in the asymmetric unit; 2.5 Å
binder,measurement,setting,value
B1,stoichiometry N,[1],4
B2,stoichiometry N,[2],3
B3,stoichiometry N,[3],3
